Test [1] concerns the target beta2-adrenergic receptor-luciferase fusion protein (human). The test can be described thus: bridge assay (Example 4A), sc-569 at 1 ng/ml in buffer.
The target is the same in test [2]. The test can be described thus: bridge assay (Example 4A), sc-569 at 2 ng/ml in buffer.
For test [3] the target is unchanged. The test can be described thus: bridge assay (Example 4A), sc-569 at 5 ng/ml in buffer.
The target is the same in test [4]. The test can be described thus: bridge assay (Example 4A), sc-569 at 10 ng/ml in buffer.
Test [5] shares this target. The test can be described thus: bridge assay (Example 4A), sc-569 at 20 ng/ml in buffer.
The target is the same in test [6]. The test can be described thus: bridge assay (Example 4A), sc-569 at 50 ng/ml in buffer.
The target is the same in test [7]. The test can be described thus: bridge assay (Example 4A), sc-569 at 100 ng/ml in buffer.
Test [8] has the same target. Description: bridge assay (Example 4A), sc-569 at 200 ng/ml in buffer.
The target is the same in test [9]. The test can be described thus: bridge assay (Example 4A), sc-569 at 500 ng/ml in buffer.
Test [10] has the same target. Description: bridge assay (Example 4A), sc-569 at 1000 ng/ml in buffer.
For test [11] the target is unchanged. The test can be described thus: bridge assay (Example 4A), sc-569 at 2000 ng/ml in buffer.
Test [12] shares this target. Description: bridge assay (Example 4A), sc-569 at 5000 ng/ml in buffer.
The target is the same in test [13]. The test can be described thus: bridge assay (Example 4A), sc-569 at 10000 ng/ml in buffer.
The target is the same in test [14]. The test can be described thus: bridge assay (Example 4A), sc-569 at 20000 ng/ml in buffer.

Our source for the RLU values is patent US20180143213A1.

On to “Antibodies against B2 (sc-569 Santa Cruz, Calif., USA) (antibody)”, for which the RLU in test [1] is 24400 RLU; in [2] it was 25800 RLU; in test [3] it was 28100 RLU; in test [4], 33400 RLU; in [5], 45100 RLU; in test [6] it was 76000 RLU. For the same substance, the RLU in test [7] stood at 93900 RLU; in [8], 187000 RLU; in test [9], 392000 RLU; in test [10], 558000 RLU; in test [11], 948000 RLU; in test [12] it was 1.71e+06 RLU. The RLU was determined as 2.39e+06 RLU in [13] and 2.87e+06 RLU in test [14].
